Assay [1] concerns the target AT1R-Rluc (AngII type 1 receptor fused to Renilla luciferase) (human) (UniProt P30556).
Assay [2] has the same target. The source holds these as a separate data set.
For assay [3] the target is unchanged. This is another data set of the same source.
The target is the same in assay [4]. The source holds these as a separate data set.
Assay [5] shares this target. The source holds these as a separate data set.
For assay [6] the target is unchanged. The source holds these as a separate data set.

From article PMC7468457 come the findings set out here.

Chain of UniProt P30556 (P30556 whole entry, the tested form may be a part): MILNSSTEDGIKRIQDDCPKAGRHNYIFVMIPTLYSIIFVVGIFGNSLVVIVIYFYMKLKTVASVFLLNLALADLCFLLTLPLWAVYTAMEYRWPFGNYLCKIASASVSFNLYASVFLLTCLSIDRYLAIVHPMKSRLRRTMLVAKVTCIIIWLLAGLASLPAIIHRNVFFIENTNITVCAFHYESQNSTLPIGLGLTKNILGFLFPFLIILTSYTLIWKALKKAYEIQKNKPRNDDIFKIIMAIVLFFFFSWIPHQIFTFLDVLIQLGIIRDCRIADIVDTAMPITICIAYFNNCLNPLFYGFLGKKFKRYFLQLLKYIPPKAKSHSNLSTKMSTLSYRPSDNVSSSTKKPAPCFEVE

B1: PAR1 (untagged protease-activated receptor 1) (receptor)
chain: SFLLRNPNDKYEPFWEDEEKNESGLTEYRLVSINKSSPLQKQLPAFISEDASGYLTSSWLTLFVPSVYTGVFVVSLPLNIMAIVVFILKMKVKKPAVVYMLHLATADVLFVSVLPFKISYYFSGSDWQFGSELCRFVTAAFYCNMYASILLMTVISIDRFLAVVYPMQSLSWRTLGRASFTCLAIWALAIAGVVPLLLKEQTIQVPGLNITTCHDVLNETLLEGYYAYYFSAFSAVFFFVPLIISTVCYVSIIRCLSSSAVANRSKKSRALFLSAAVFCIFIICFGPTNVLLIAHYSFLSHTSTTEAAYFAYLLCVCVSSISCCIDPLIYYYASSECQRYVYSILCCKESSDPSSYNSSGQLMASKMDTCSSNLNNSIYKKLLT
In assay [1], B1 had a BRET increase between AT1R-Rluc and Venus-Gαq by thrombin 1 U/ml with PAR1 overexpression, dose-response to AngII (Figure 1D) (% of AngII response) of 70 to 75; a BRET increase between AT1R-Rluc and yPET-β-arrestin 2 by thrombin 1 U/ml with PAR1 overexpression (Figure 1F) (% of AngII response) of 25. In assay [2], this molecule yielded an Emax of thrombin dose-response, BRET between AT1R-Rluc and Venus-Gαq, PAR1 overexpressed, thrombin alone; 10 nM AngII alone taken as 100% of 211%; an Emax of thrombin dose-response, BRET between AT1R-Rluc and Venus-Gαq, PAR1 overexpressed, with 10 nM AngII of 342%; an Emax of thrombin dose-response, BRET between AT1R-Rluc and yPET-β-arrestin 2, PAR1 overexpressed, thrombin alone; 10 nM AngII alone taken as 100% of 102%; an Emax of thrombin dose-response, BRET between AT1R-Rluc and yPET-β-arrestin 2, PAR1 overexpressed, with 10 nM AngII of 299%. In assay [3], this molecule returned a real-time BRET between AT1R-Rluc and Venus-Gαq, PAR1 overexpressed, AngII 10 nM and thrombin 1 U/ml together (% of AngII response) of 207; a real-time BRET between AT1R-Rluc and Venus-Gαq, PAR1 overexpressed, thrombin 1 U/ml alone (% of AngII response) of 79; a real-time BRET between AT1R-Rluc and yPET-β-arrestin 2, PAR1 overexpressed, AngII 10 nM and thrombin 1 U/ml together (% of AngII response) of 218; a real-time BRET between AT1R-Rluc and yPET-β-arrestin 2, PAR1 overexpressed, thrombin 1 U/ml alone (% of AngII response) of 44. Besides, the sequential real-time BRET between AT1R-Rluc and yPET-β-arrestin 2, PAR1 overexpressed, vehicle then thrombin 1 U/ml (% of AngII response) in assay [4] amounted to 50. In assay [5], this molecule yielded an IP1 production in HEK293 cells coexpressing AT1R-Rluc and PAR1, AngII 10 nM and thrombin 1 U/ml together of 160%. In assay [6], the AT1R endosomal trafficking (BRET between AT1R-Rluc and Venus-Rab5), PAR1 overexpressed and co-activated came to 45%; the AT1R endosomal trafficking (BRET between AT1R-Rluc and Venus-Rab7), PAR1 overexpressed and co-activated amounted to 41%.
